Molecular target: Bcl-XL-126Bpa (UniProt Q07817)
Test: BLI

UniProt Q07817, sequence (Q07817 whole entry): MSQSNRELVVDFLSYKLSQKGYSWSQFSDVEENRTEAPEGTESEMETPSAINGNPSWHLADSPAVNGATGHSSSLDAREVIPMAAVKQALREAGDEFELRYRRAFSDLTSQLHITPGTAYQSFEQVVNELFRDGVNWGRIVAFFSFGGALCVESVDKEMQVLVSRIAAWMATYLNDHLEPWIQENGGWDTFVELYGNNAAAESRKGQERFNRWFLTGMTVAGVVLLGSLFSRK

- Kd: 1.77 µM
Substance: Bid-83Bpa (from UniProt P55957 1-195) (natural protein)
